Drawing on patent US20100136594, this text covers KM, Kcat and kcat (Mmin^-1) for one protein.

The target in series [1] is T1, 20-mer peptide substrate GEIIGGTECKPHSRPYMAYL (SEQ ID NO: 1).
T1 chain: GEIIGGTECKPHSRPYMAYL

The target in series [2] is T2, Dipeptide substrate Gly-Arg labeled with alpha-methylcoumarin (AMC).
T2 chain: GR

B1: Dipeptidyl peptidase I (DPPI) (protein)
chain 1: not shown
chain 2: LPTSWDWRNVHGINFVSPVRNQASCGSCYSFASMGMLEARIRILTNNSQTPILSPQEVVSCSQYAQGCEGGFPYLIAGKYAQDFGLVEEACFPYTGTDSPCKMKEDCFRYYSSEYHYVGGFYGGCNEALMKLELVHHGPMAVAFEVYDDFLHYKKGIYHHTGLR
chain 3: not shown
For B1, in series [1], the KM (as a rule, the concentration of substrate that gives half-maximal velocity) is 62 µM; the Kcat result is “about 62 µM, 1.15 sec^-1, and 1.95×10^4 M^-1sec^-1, respectively”; the kcat (Mmin^-1) was 1.15 s⁻¹. Also, in series [2], the Michaelis-Menten constant (KM) is 64 µM and the kcat (Mmin^-1) turned out to be 94.5 s⁻¹.
